Measurements as given in US20210155941A1 (KITE PHARMA EU B V, published 2021).

Molecular target: HLA-A*02:01/HPV16 E7 11-19 (…) peptide-MHC complex on target cells (Human Papilloma virus serotype 16 …)
Test: cell-based or functional assay

B1: A*02:01/HPV16 E711-19 human TCR (fully human constant regions) expressed on transduced T cells (TCR, V domains shown)
V domain 1: GQNIDQPTEMTATEGAIVQINCTYQTSGFNGLFWYQQHAGEAPTFLSYNVLDGLEEKGRFSSFLSRSKGYSYLLLKELQMKDSASYLCASVDGNNRLAFGKGNQVVVIP
V domain 2: DAGVTQSPTHLIKTRGQQVTLRCSPKSGHDTVSWYQQALGQGPQFIFQYYEEEERQRGNFPDRFSGHQFPNYSSELNVNALLLGDSALYLCASSLGWRGGRYNEQFFGPGTRLTVLE
EC50 of intracellular IFN-γ (ICCS, flow cytometry), CD4+ T cells td with the TCR vector lacking the miRαβ cassette, peptide-loaded T2 target cells: ~52.4 nM
EC50 of intracellular IFN-γ (ICCS, flow cytometry), CD4+ T cells td with the pMP71-miRαβ A*02:01/HPV16 E711-19 fHC TCR vector, peptide-loaded T2 target cells: ~22.3 nM
EC50 of intracellular IFN-γ (ICCS, flow cytometry), CD8+ T cells td with the TCR vector lacking the miRαβ cassette, peptide-loaded T2 target cells: ~6.4 nM
EC50 of intracellular IFN-γ (ICCS, flow cytometry), CD8+ T cells td with the miRαβ TCR vector (SEQ ID NO: 15), peptide-loaded T2 target cells: ~3.4 nM
